This passage reports EC50 and Kd results from US20210403538A1 (published 2021).

In assay [1] the target is T1, EBOV GP [change] (Zaire ebolavirus (EBOV), strain Makona). The experiment in a line: ELISA.
The target of the next assay is BDBV GP [change] (Bundibugyo ebolavirus (BDBV), strain …). The assay can be described thus: ELISA.
For assay [2], the target named is T1, EBOV GP [change]. The assay can be described thus: BLI.

B1: rEBOV-548 (antibody, V domains shown)
VH: QVQVEESGGGVVQPGGSLRLSCAASGFMFSNYGMHWVRQAPGKGLEWMAFIRYDDSKKFYADSVKGRFTISRDNSKNTLYLQMNSLRAEDTALYYCAKELLQVYTSAWGEGHSYYYALDVWGLGTAVTVSS
VL: DIQMTQSPSSVSASVGDRVTITCRASQDISNWLAWYQQKPGKAPELLIYTASILQSGVSSRFSGSGSGTDFTLTISSLQPEDSATYYCQQGKSFPYTFGQGTKLEIK
Turning to B1, the EC50 (usually the concentration needed to bring the measured effect to its halfway point) with EBOV GP [change] [1] amounted to 6 ng/mL; with BDBV GP [change], 7 ng/mL. In addition, binding with EBOV GP [change] [2] was characterised by a dissociation constant (Kd) of 0.041 nM.

B2: EBOV-515 (antibody, V domains shown)
VH: QVQLQESGPGLVKPSQTLSLTCTVSGGSINSAGYYWTWIRQHPGKGLEWIGYIDYTGRTYYNPSLESRVIISIDTSKNHFSLRLTSVSAADTAVYYCARESSWVSELGRDNWGQGTLVTVSS
VL: EIVMTQSPATLPVSPGEGATLSCRASQSVFTNLAWYQQKPGQAPRLLIYDASTRATGIPARFSGSGSGTEFTLTISSLQSEDFAVYYCQQYNNWPRTYGQGTRVEVK
Consider B2, for which, in the assay with EBOV GP [change] [2], the Kd (commonly the equilibrium constant for the complex coming apart) came to 0.53 nM.

B3: rEBOV-542 (antibody, V domains shown)
VH: EVQLVESGGGLVQPGGSLRLSCAASGFTVSNNYMSWVRQAPGKGLEWVSLIYTSVTTYYADSVKGRFTISRDNSKNTLYLQMNSLRAEDTAVYYCARELGNWSYGVSYWGRGTLVTVSS
VL: SYELTQPPSVSVSPGQTARITCSGDALPKQYAYWYQQKPGQAPVLVIYKDSERPSGIPERFSGSSSGTTVTLTISGVQAEDGADYYCQSADGSGTYPVVFGGGTKLTVL
B3: the results for the EC50 with EBOV GP [change] [1] and with BDBV GP [change] were 11 ng/mL and 8 ng/mL, respectively. Further, the Kd with EBOV GP [change] [2] worked out at 0.26 nM.

B4: rEBOV-520 LALA (antibody, V domains shown)
VH: QVQLQESGPGLGKPSETLSLSCTVSGASIRGYFWNWIRQPPGKGLEWIGYIHSTGSTNYNPSLKSRVTISVDTSKNQVSLNVNSVTAADTAVYFCARGAWNVATVYYYYGMDVWGQGTLVTVSS
VL: EIVLTQSPGTLSLSPGERATLSCRASQSVSSSYFAWYQQKPGQAPRLLISGTSTRAPGIPDRFSGSGSGTDFTLTISRLEPEDFAVYFCQQYGNSLYTFGQGTKLEIK
Take B4: the EC50 with EBOV GP [change] [1] turned out to be 18 ng/mL; with BDBV GP [change], 45 ng/mL. The molecule also came in with a Kd with EBOV GP [change] [2] of 2.12 nM.
